Values of other authors, collected in paper PMC5209733, “U24 from Roseolovirus interacts strongly with Nedd4 WW Domains” (Scientific Reports, 2017).

B1: MBP: myelin basic protein (protein, UniProt P02686 1-304, looked up)
Myelin basic protein: MGNHAGKRELNAEKASTNSETNRGESEKKRNLGELSRTTSEDNEVFGEADANQNNGTSSQDTAVTDSKRTADPKNAWQDAHPADPGSRPHLIRLFSRDAPGREDNTFKDRPSESDELQTIQEDSAATSESLDVMASQKRPSQRHGSKYLATASTMDHARHGFLPRHRDTGILDSIGRFFGGDRGAPKRGSGKDSHHPARTAHYGSLPQKSHGRTQDENPVVHFFKNIVTPRTPPPSQGKGRGLSLSRFSWGAEGQRPGFGYGGRASDYKSAHKGFKGVDAQGTLSKIFKLGGRDSRSGSPMARR
B2: U24: putative tail-anchored membrane protein that is unique to roseoloviruses (protein)
chain: MDPPRTPPPSYSEVLMMDVMCGQVSPHVINDTSFVECIPPPQSRPAWNLWNNRRKTFSFLVLTGLAIAMILFIVFVLYVFHVNRQRR

What was measured:
Fyn SH3 = details: association with Fyn SH3
Text: One possible way in which U24 may be implicated in MS is through the mimicry of myelin basic protein (MBP) because the two proteins share a seven amino acid stretch that contains a PxxP motif (Fig. 1a). This segment is essential for MBP to participate in Fyn-mediated signalling pathways by a direct but non-canonical association with the Fyn-SH3 domain[11]. Disruption of these signalling pathways has a large impact on oligodendrocyte differentiation and maturation, processes that are perturbed in MS patients. Within this PxxP motif and just before it are two threonine residues (T95 and T98), wh ...

[1] = system: human Nedd4 family E3 ubiquitin ligases: Nedd4-1, Nedd4-2, AIP4, Smurf1, Smurf2, WWP1, and WWP2; details: pull-down assays
Text: However, precise binding affinities are hard to extract from such results. […] We have focussed our studies on human Nedd4 WW domains (hNedd4 and hNedd4L, Fig. 1b) given their relevance in the CNS, noted above. As controls, we have u ...

[2] = system: TCR/CD3ε receptors in T-cells; details: PY motif responsible for down-regulation
Text: (§1) Within the proline rich region of U24 is a PY motif that is conserved in both HHV-6A and HHV-7 (Fig. 1a). […] However, the exact mechanism by which this occurs is unknown.

[3] = system: transferrin receptor (TfR)
Text: as §1

Nedd4-WW1 domain = details: found previously
Method: In order to compare with previously reported results, experiments were carried out on four relevant WW domains: the second and the third WW domain of rat Nedd4 (rNedd4-WW2 and rNedd4-WW3/4, where WW3/4 is a homologue of the fourth WW domain in human), and the pair of third WW domains from human Nedd4 (hNedd4-WW3* and hNedd4L-WW3*). The WW3 domains are indicated with a star because this type of WW domain is missing in rat and mouse Nedd4[36][37]. Nedd4-WW1 domain was not used as it was found previously not to bind U24. The WW domains mentioned above were fused to the C-terminus of GST prote ...

Row | Molecule | Kd (Fyn SH3) [µM] | binding to Nedd4 family E3 ubiquitin ligases [1] | recycling of TCR/CD3ε receptors to the cell surface [2] | modulation of transferrin receptor [3] | binding to Nedd4-WW1 (Nedd4-WW1 domain)
1 | B1 | 4 to 8 |  |  |  | 
2 | B2 |  | can bind to most of the seven human Nedd4 family E3 ubiquitin ligases | blocked from recycling back to the cell surface | down-modulate the transferrin receptor | not to bind
